B1: Kelch repeat and BTB domain-containing protein 6 (Homo sapiens), Q86V97 (parent)
chain: MQSREDAPRSRRLASPRGGKRPKKIHKPTVSAFFTGPEELKDTAHSAALLAQLKSFYDARLLCDVTIEVVTPGSGPGTGRLFPCNRNVLAAACPYFKSMFTGGMYESQQASVTMHDVDAESFEVLVDYCYTGRVSLSEANVERLYAASDMLQLEYVREACASFLARRLDLTNCTAILKFADAFGHRKLRSQAQSYIAQNFKQLSHMGSIREETLADLTLAQLLAVLRLDSLDVESEQTVCHVAVQWLEAAPKERGPSAAEVFKCVRWMHFTEEDQDYLEGLLTKPIVKKYCLDVIEGALQMRYGDLLYKSLVPVPNSSSSSSSSNSLVSAAENPPQRLGMCAKEMVIFFGHPRDPFLCCDPYSGDLYKVPSPLTCLAHTRTVTTLAVCISPDHDIYLAAQPRTDLWVYKPAQNSWQQLADRLLCREGMDVAYLNGYIYILGGRDPITGVKLKEVECYNVKRNQWALVAPLPHSFLSFDLMVIRDYLYALNSKRMFCYDPSHNMWLKCVSLKRNDFQEACVFNEEIYCICDIPVMKVYNPVRAEWRQMNNIPLVSETNNYRIIKHGQKLLLITSRTPQWKKNRVTVYEYDIRGDQWINIGTTLGLLQFDSNFFCLSARVYPSCLEPGQSFLTEEEEIPSESSTEWDLGGFSEPDSESGSSSSLSDDDFWVRVAPQ
B2: Kelch repeat and BTB domain-containing protein 7 (Homo sapiens), Q8WVZ9 (parent)
chain: MQSREDVPRSRRLASPRGGRRPKRISKPSVSAFFTGPEELKDTAHSAALLAQLKSFYDARLLCDVTIEVVTPGSGPGTGRLFSCNRNVLAAACPYFKSMFTGGMYESQQASVTMHDVDAESFEVLVDYCYTGRVSLSEANVQRLYAASDMLQLEYVREACASFLARRLDLTNCTAILKFADAFDHHKLRSQAQSYIAHNFKQLSRMGSIREETLADLTLAQLLAVLRLDSLDIESERTVCHVAVQWLEAAAKERGPSAAEVFKCVRWMHFTEEDQDYLEGLLTKPIVKKYCLDVIEGALQMRYGDLLYKSLVPVPNSSSSSSSSNSLVSAAENPPQRLGMCAKEMVIFFGHPRDPFLCYDPYSGDIYTMPSPLTSFAHTKTVTSSAVCVSPDHDIYLAAQPRKDLWVYKPAQNSWQQLADRLLCREGMDVAYLNGYIYILGGRDPITGVKLKEVECYSVQRNQWALVAPVPHSFYSFELIVVQNYLYAVNSKRMLCYDPSHNMWLNCASLKRSDFQEACVFNDEIYCICDIPVMKVYNPARGEWRRISNIPLDSETHNYQIVNHDQKLLLITSTTPQWKKNRVTVYEYDTREDQWINIGTMLGLLQFDSGFICLCARVYPSCLEPGQSFITEEDDARSESSTEWDLDGFSELDSESGSSSSFSDDEVWVQVAPQRNAQDQQGSL

Variants of B1 are the subject of one experiment. To be noted: with cul3_human CUL3, Q13618.
In the case of M99A, the “effect of a mutation on the interaction” value is “disrupting interaction strength”.

The variants in a further experiment derive from B1. To be noted: with tiam1_human TIAM1, Q13009.
Target sequence in this assay (Q13009 whole entry): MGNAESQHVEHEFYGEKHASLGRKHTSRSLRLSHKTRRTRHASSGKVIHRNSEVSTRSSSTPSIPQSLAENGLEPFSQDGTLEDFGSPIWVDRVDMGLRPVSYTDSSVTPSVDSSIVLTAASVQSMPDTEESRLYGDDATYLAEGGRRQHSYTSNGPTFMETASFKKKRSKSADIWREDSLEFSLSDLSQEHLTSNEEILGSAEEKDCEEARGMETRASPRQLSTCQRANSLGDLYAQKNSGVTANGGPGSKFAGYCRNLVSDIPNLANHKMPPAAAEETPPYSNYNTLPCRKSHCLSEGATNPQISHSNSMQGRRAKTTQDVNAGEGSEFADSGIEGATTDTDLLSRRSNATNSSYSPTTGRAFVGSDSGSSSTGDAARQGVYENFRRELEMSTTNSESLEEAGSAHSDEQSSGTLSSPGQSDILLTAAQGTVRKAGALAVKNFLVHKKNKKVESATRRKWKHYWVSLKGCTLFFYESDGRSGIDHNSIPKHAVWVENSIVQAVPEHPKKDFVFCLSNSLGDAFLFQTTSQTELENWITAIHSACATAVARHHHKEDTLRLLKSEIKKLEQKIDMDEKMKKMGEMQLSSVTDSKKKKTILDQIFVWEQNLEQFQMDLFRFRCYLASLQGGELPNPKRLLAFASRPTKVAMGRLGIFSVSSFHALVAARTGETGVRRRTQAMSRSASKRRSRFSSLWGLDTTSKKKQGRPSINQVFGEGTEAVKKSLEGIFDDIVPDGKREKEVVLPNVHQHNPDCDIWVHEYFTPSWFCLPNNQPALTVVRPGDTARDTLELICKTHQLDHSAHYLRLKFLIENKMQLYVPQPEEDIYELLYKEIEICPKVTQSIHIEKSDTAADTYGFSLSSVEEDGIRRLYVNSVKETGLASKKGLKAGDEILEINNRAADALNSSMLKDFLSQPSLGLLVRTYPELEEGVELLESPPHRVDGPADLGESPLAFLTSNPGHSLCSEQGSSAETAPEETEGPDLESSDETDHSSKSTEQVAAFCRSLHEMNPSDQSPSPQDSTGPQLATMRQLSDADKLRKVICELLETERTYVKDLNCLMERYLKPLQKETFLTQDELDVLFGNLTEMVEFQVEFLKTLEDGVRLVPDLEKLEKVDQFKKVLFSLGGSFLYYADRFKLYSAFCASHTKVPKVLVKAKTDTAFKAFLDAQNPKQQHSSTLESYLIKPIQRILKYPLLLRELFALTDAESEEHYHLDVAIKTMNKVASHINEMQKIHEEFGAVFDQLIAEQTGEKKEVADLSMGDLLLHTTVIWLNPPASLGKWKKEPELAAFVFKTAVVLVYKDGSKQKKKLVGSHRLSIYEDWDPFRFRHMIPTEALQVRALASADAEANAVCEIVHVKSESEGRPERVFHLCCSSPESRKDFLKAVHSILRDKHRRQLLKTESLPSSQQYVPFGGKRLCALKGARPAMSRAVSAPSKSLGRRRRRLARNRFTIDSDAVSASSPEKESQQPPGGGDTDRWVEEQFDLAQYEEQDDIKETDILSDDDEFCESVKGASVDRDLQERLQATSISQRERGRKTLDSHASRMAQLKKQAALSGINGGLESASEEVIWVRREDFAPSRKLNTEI
On to W668A, for which the “effect of a mutation on the interaction” value is “decreasing interaction strength”.

A further experiment covers variants of B2. To be noted: with tiam1_human TIAM1, Q13009.
Target sequence in this assay (Q13009 whole entry): as above
Turning to M99A, the “effect of a mutation on the interaction” value was “with no effect”.

W668A: the “effect of a mutation on the interaction” value is reported as “decreasing interaction strength”.

A further experiment covers variants of B2. To be noted: with cul3_human CUL3, Q13618.
As for M99A, the “effect of a mutation on the interaction” value is “disrupting interaction strength”.

Variants of B2 are the subject of a further experiment. To be noted: with gbrap_human GABARAP.
Consider F122A, for which the “effect of a mutation on the interaction” value is on record as “with no effect”.

With Y559A, the “effect of a mutation on the interaction” value was “with no effect”.

Take W668A: the “effect of a mutation on the interaction” value is recorded as “decreasing interaction strength”.

Regarding F649A, the “effect of a mutation on the interaction” value was “with no effect”.

The variants in another experiment derive from B2. To be noted: with gbrl2_human GABARAPL2, P60520.
gbrl2_human GABARAPL2, P60520, sequence (P60520 whole entry): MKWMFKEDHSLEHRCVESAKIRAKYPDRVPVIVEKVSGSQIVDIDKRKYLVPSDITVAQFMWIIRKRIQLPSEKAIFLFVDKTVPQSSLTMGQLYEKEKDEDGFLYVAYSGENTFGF
Turning to F122A, the “effect of a mutation on the interaction” value was “with no effect”.

In the case of Y559A, the “effect of a mutation on the interaction” value is “with no effect”.

Turning to W668A, the “effect of a mutation on the interaction” value is recorded as “with no effect”.

Regarding F649A, the “effect of a mutation on the interaction” value is on record as “with no effect”.

In another experiment the parent is B2. To be noted: with mlp3b_human MAP1LC3B.
F122A: the “effect of a mutation on the interaction” value was “with no effect”.

On to Y559A, for which the “effect of a mutation on the interaction” value was “with no effect”.

As for W668A, the “effect of a mutation on the interaction” value is given as “disrupting interaction strength”.

Turning to F649A, the “effect of a mutation on the interaction” value is listed as “with no effect”.

Source of the values: IntAct's records for PubMed 25684205.
